In WO2012172495A1 (dated 2012):

What was measured:
[1] = target: T1, human TEM8 on transfected HEK-293 cells (293/Flag-hTEM8) (human, UniProt Q9H6X2 33-564); assay: immunofluorescence microscopy, 10 ug/ml Fab on HEK-293 cells transfected with human TEM8, against untransfected HEK-293
T1 construct: also called HEK-293 transfected with human TEM8

[2] = target: T2, purified recombinant hTEM8(ED)-Fc fusion protein, biotinylated (human, UniProt Q9H6X2 33-321, biotinylated (site not stated)); assay: ELISA, Fab on biotinylated human TEM8-Fc
T2 construct: also called human TEM8-Fc
T2 sequence: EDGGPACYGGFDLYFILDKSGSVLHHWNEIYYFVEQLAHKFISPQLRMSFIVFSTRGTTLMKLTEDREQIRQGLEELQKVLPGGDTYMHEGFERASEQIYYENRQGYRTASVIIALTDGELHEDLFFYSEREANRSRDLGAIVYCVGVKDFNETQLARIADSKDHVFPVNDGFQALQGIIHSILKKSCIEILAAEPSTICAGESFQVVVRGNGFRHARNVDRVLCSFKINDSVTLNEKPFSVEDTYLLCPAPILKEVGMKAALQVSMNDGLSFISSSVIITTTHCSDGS

- binding result [1]: binds
- binding result [2]: binds
B1: L5 Fab fragment (Anti-human TEM8_cl4) (Fab, V domains shown)
VH: QVQLVESGGGLVQPGGSLRLSCAASGFTFNSYGLSWVRQAPGKGLEWVSNISSNGSYTYYADSVKGRFTISRDNSKNTLYLQMNSLRAEDTAVYYCARAGYGLFDVWGQGTLVTVSS
VL: DIELTQPPSVSVAPGQTARISCSGDKLREYYVHWYQQKPGQAPVLVIYGDNKRPSGIPERFSGSNSGNTATLTISGTQAEDEADYYCSSWAGSRSGTVFGGGTKLTVL
notes: Tested as a purified Fab fragment; The light chain is lambda
